Test results: patent US6462173B1, “Inhibitors of phosphoserine and phosphothreonine-proline-specific isomerases” (Max-Planck-Gesellschaft zur Forderung der, priority 1997, dated 2002)
Values belong to the molecule of their own block, whether it stands above or below them.

How the values were obtained:
Pin1 [1] = target: T1, Pin1 (Homo sapiens, UniProt Q13526); assay: Pin1 precipitation from interphase and mitotic HeLa extracts probed with antibodies to known mitotic phosphoproteins; format: binding
T1 construct: fusion protein containing full length Pin1 was bacterially expressed, purified; made in house
T1 sequence (Q13526 whole entry, the tested form may be a part): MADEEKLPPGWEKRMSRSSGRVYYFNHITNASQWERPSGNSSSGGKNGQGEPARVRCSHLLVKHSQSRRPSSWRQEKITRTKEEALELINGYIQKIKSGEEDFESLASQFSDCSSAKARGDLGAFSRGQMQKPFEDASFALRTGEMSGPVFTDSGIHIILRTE
Procedure: (§1) To detect Pin1-binding proteins, either HeLa cells were lysed in or Xenopus extracts were diluted in a buffer (buffer A) containing 50 mM Tris-HCl, pH 8.0, 200 mM NaCl, 100 mM NaF, 1 mM sodium orthovanadate, 10% glycerol, 1% Triton X100, 10 μg/ml aprotinin, 50 μg/ml phenylmethylsulfonyl fluoride and 1 mM DTT. The lysates were preclarified with boiled S. aureus bacteria (CalBiochem) and then incubated with 10 μl of agarose beads containing various GST-Pin1 proteins or control GST for 2 h at 4° C. The precipitated proteins were washed 5 times in the same buffer and subjected to immunoblotting analysis. Immunoprecipitation and immunoblotting analysis using MPM-2 antibody (Davis et al. 1983), which was kindly provided by J. Kuang, Pin1 antibodies (Lu et al., 1996, kindly provided by M. White or newly generated), anti-phospho.Tyr antibody (UBI), anti-Cdc25C (Ogg, et al., 1994) (from H. Piwnica-Worms and Santa Cruz Biotechnology), anti-Cdc27, anti-Plk1 (Zymed), anti-Cdc2 (Solomon, M. J., M. Glotzer, T. H. Lee, M. Philippe and M. W. Kirschner. Cell 63:1013-1024 (1991), anti-human Myt1, anti-human cyclin B1 and anti-Xenopus cyclin B were performed, as described previously in Lu and Hunter, 1995; Lu et al., 1996).
Several known mitotic regulators such as cyclin B, Cdc25, Myt1, Plk1 and Cdc27 are phosphorylated at mitosis. To identify at least a few of the many Pin1 binding proteins, Pin1-binding proteins were precipitated from HeLa cells, or Xenopus extracts and probed with antibodies specific for known mitotic phosphoproteins. As shown previously, levels of Plk1 and cyclin B1 increased at mitosis, whereas similar amounts of Cdc25C were present in interphase and mitotic HeLa cells. […] Similarly, only the mitotic, but not the interphase form of Xenopus Cdc27 was precipitated by Pin1.

Pin1 [2] = target: T1, Pin1; assay: Precipitation with GST-Pin1 beads of synthesized phosphoproteins incubated with interphase and mitotic Xenopus extracts; format: binding; parameters: key: +: a week but above background interaction; ++: readily detectable interaction; +++: strong interaction; conditions: for Interaction with Pin1, Mitotic: mitotic Xenopus extracts
Procedure: The binding between Pin1 and all selected mitotic phosphoproteins was assayed by incubating synthesized proteins with interphase and mitotic Xenopus extracts, followed by precipitation with GST-Pin1beads. The Pin1 interactions with those proteins indicated with * were also confirmed by GST-Pin1 pull-down assay from endogenous interphase and mitotic HeLa cell extracts. +, a week but above background interaction; ++, readily detectable interaction; +++, strong interaction.
The mitotic phosphoproteins were translated in vitro using the TNT coupled transcription/translation kit (Promega) in a total volume of 10 μl in the presence of 8 μCi [^35S]methionine (1000 Ci/mmol) for 2 h at 30° C. They were then incubated in xenopus interphase and mitotic extracts as described (Stukenberg et al., 1997). These incubated clones were precipitated by Pin1 beads as described below. The Xenopus Mos and Weel clones were a kind gift of M. Murakami, G, F. Woude and J. Cooper; the Xenopus Cdc25 clone was a generous gift of W. Dunphy, T3 and T3S2 Cdc25 mutants were kindly provided by J. Maller (Izumi and Maller, 1993).
as §1
To gain a sense of the generality of the interaction between Pin1 and mitotic phosphoproteins and to confirm the Pin1 interaction with target proteins is indeed mediated by phosphorylation, the ability of Pin1 to bind other known mitotic phosphoproteins and a set of mitotic phosphoproteins identified by a systematic phosphoprotein screen (Stukenberg et al., Curr Biol 7:338-348 (1997). Proteins synthesized in vitro were phosphorylated in a cell cycle specific manner by incubating them in either Xenopus interphace or mitotic extracts. These labeled protein were subsequently incubated with GST-Pin1 beads that were extensively washed and the bound proteins analyzed by SDS-PAGE. To validate this method, Cdc25 was first tested. Again, the mitotically phosphorylated form of in vitro translated Cdc25 could be precipitated by GST-Pin1 beads. However, Cdc25 was not recognized by Pin1 if it was incubated in interphase extracts. […] Out of the 13 mitotic phosphoproteins examined, Pin1 bound 10 in a mitosis and phosphorylation-dependent manner (summarized in Table 1), including Weel, MP75 and MP110, MP75 and MP110 are Xenopus proteins related to microtubule-associated protein E-MAP-115 and the fission yeast G2 transcription factor Cdc5, respectively.

Pin1 [3] = target: T1, Pin1; assay: Confirmation of interaction between Pin1 and predicted Pin1 substrates; conditions: Pin1 binding confirmed in vitro (SC35 inferred from colocalization)
Procedure: On the basis of amino acid preferences deduced in the 6 positions surrounding the pS-P motif for optimal Pin1 binding, a weighted screening of the SWISS-PROT sequence database. Protein sequence database screening was performed with the program INDOVINATOR, using an entropy-based weighing technique to score for relative information content at each amino acid position flanking the pS/pT-P motif with the quantitative peptide library results, which are shown qualitatively in Table 3. […] Many of these proteins are involved in regulation of the cell cycle, cytoskeletal/spindle structure, DNA replication, transcription or RNA processing (Table 4).
Several of these predicted proteins, such as Rab4, Cdc25 and NIMA, undergo mitosis-specific phosphorylation (R. Heald and F. McKeon, Cell 61:579 (1990); E. Bailly, et al., Nature 350:715 (1991); A. Blangy, et al., Cell 83:1159 (1995): J. Kuang, et al., Mol. Biol. Cell 5:135 (1994); X. S. Ye, et al., EMBO J. 14:986 (1995)). Cdc25 and NIMA also binds to Pin1 in a phosphorylation-dependent manner, as described herein. Other proteins identified in this search, however, had not been previously suspected of interacting with Pin1; therefore, a few were further investigated as example cases. […] Thus, Pin1 binds a wide functional range of mitotic phosphoproteins.

Molecule: PTP-1B: protein hyperphosphorylated during mitosis
precipitation by Pin1 (Pin1 [1]): not precipitated by Pin1 in either interphase or mitotic extracts

B1: Mos: mitotic phosphoprotein, Xenopus Mos clone (protein)
chain: MPSPIPVERFLPRDLSPSIDLRPCSSPLELSHRKLPGGLPACSGRPRLLPPRLAWCSIDWEQVLLLEPLGSGGFGSVYRATYRGETVALKKVKRSTKNSLASRQSFWAELNAARLRHPHVVRVVAASASCPGDPGCPGTIIMEYTGTGTLHQRIYGRSPPLGAEICMRYARHVADGLRFLHRDGVVHLDLKPANVLLAPGDLCKIGDFGCSQRLREGDEAAGGEPCCTQLRHVGGTYTHRAPELLKGEPVTAKADIYSFAITLWQMVSRELPYTGDRQCVLYAVVAYDLRPEMGPLFSHTEEGRAARTIVQSCWAARPQERPNAEQLLERLEQECAMCTGGPPSCSPESNAPPPLGTGL
Interaction with Pin1, Interphase (Pin1 [2]; interphase Xenopus extracts): +
Interaction with Pin1, Mitotic (Pin1 [2]): ++

B5: Cdc25: mitotic phosphoprotein, phosphatase; Xenopus Cdc25 clone translated in vitro (protein)
chain: STELFSSTREEGSSGSGPSFRSNQRKMLNLLLERDTSFTVCPDVPRTPVGKFLGDSANLSILSGGTPKRCLDLSNLSSGEITATQLTTSADLDETGHLDSSGLQEVHLAGMNHDQHLMKCSPAQLLCSTPNGLDRGHRKRDAMCSSSANKENDNGNLVDSEMKYLGSPITTVPKLDKNPNLGEDQAEEISDELMEFSLKDQEAKVSRSGLYRSPSMPENLNRPRLKQVEKFKDNTIPDKVKKKYFSGQGKLRKGLCLKKTVSLCDITITQMLEEDSNQGHLIGDFSKVCALPTVSGKHQDLKYVNPETVAALLSGKFQGLIEKFYVIDCRYPYEYLGGHIQGALNLYSQEELFNFFLKKPIVPLDTQKRIIIVFHCEFSSERGPRMCRCLREEDRSLNQYPALYYPELYILKGGYRDFFPEYMELCEPQSYCPMHHQDHKTELLRCRSQSKVQEGERQLREQIALLVKDMSP
Interaction with Pin1, Mitotic (Pin1 [2]): +++

B6: E-MAP-115: cytoskeletal/spindle protein, predicted Pin1 substrate (protein, UniProt Q14244 2-749, looked up)
Ensconsin: AELGAGGDGHRGGDGAVRSETAPDSYKVQDKKNASSRPASAISGQNNNHSGNKPDPPPVLRVDDRQRLARERREEREKQLAAREIVWLEREERARQHYEKHLEERKKRLEEQRQKEERRRAAVEEKRRQRLEEDKERHEAVVRRTMERSQKPKQKHNRWSWGGSLHGSPSIHSADPDRRSVSTMNLSKYVDPVISKRLSSSSATLLNSPDRARRLQLSPWESSVVNRLLTPTHSFLARSKSTAALSGEAASCSPIIMPYKAAHSRNSMDRPKLFVTPPEGSSRRRIIHGTASYKKERERENVLFLTSGTRRAVSPSNPKARQPARSRLWLPSKSLPHLPGTPRPTSSLPPGSVKAAPAQVRPPSPGNIRPVKREVKVEPEKKDPEKEPQKVANEPSLKGRAPLVKVEEATVEERTPAEPEVGPAAPAMAPAPASAPAPASAPAPAPVPTPAMVSAPSSTVNASASVKTSAGTTDPEEATRLLAEKRRLAREQREKEERERREQEELERQKREELAQRVAEERTTRREEESRRLEAEQAREKEEQLQRQAEERALREREEAERAQRQKEEEARVREEAERVRQEREKHFQREEQERLERKKRLEEIMKRTRRTEATDKKTSDQRNGDIAKGALTGGTEVSALPCTTNAPGNGKPVGSPHVVTSHQSKVTVESTPDLEKQPNENGVSVQNENFEEIINLPIGSKPSRLDVTNSESPEIPLNPILAFDDEGTLGPLPQVDGVQTQQTAEVI
Binding Confirmed (Pin1 [3]): Yes

More lines, now with the values ahead:

Interaction with Pin1, Mitotic (Pin1 [2]): +++
Binding Confirmed (Pin1 [3]): Yes
B2: NIMA: mitotic phosphoprotein, kinase (protein)
chain: MAIALAEADKYEVLEKIGCGSFGIIRKVKRKSDGFILCRKEINYIKMSTKEREQLTAEFNILSSLRHPNIVAYYHREHLKASQDLYLYMEYCGGGDLSMVIKNLKRTNKYAEEDFVWRILSQLVTALYRCHYGTDPAEVGSNLLGPAPKPSGLKGKQAQMTILHRDLKPENIFLGSDNTVKLGDFGLSKLMHSHDFASTYVGTPFYMSPEICAAEKYTLRSDIWAVGCIMYELCQREPPFNARTHIQLVQKIREGKFAPLPDFYSSELKNVIASCLRVNPDHRPDTATLINTPVIRLMRREVELNNLSRAARKREEATMQKAKDVEQAFAKLEKEKQQIRSELENSIRREWEVKARLEIDRQVQNELDKLRKRFECEVQDRVAQEVEKQRRNANYREDASLRSSGHSSQMSSSNSEDSDFPSSTDISQLSLESPTNKAAKLPKKESRTPFTRSKTVVDSPMDIQMAEPSPISIASLSLSPRRTSATYSGKNIFAEGERKRPKFEPTLAYSDDEDDTPELPSPTRPKVKPDPFKAPSRPLLRQNTTALMQKLSTQPPIFPANPSRLPQMSAPDVRESKSRSPHRRLSKIPSSANLAADAGSPTRKNGVKSSPSKMNGGDEMFKAVMQRNMGGRTLVELAQARAGGRPIDEVKRCASDSRSGCSVPMKSADRDPPAVWDPERDEMPSPFLARGRKVIRNLR

Interaction with Pin1, Mitotic (Pin1 [2]): +++
B3: Plx1: mitotic phosphoprotein (protein)
chain: MAQVAGKKLTVAPEAAKPPGIPGSSSAVKEIPEILVDPRTRRRYLRGRFLGKGGFAKCYEITDLESREVFAGKIVPKTMLLKPHQKDKMTMEIAIQRSLDHRHVVGFHGFFEDNDFVYVVLELCRRRSLLELHKRRKAVTEPEARYYLKQTISGCQYLHSNRVIHRDLKLGNLFLNDEMEVKIGDFGLATKVEYDGERKKTLCGTPNYIAPEVLGKKGHSFEVDIWSIGCIMYTLLVGKPPFETSCLKETYMRIKKNEYSIPKHINPVAAALIQKMLRSDPTSRPTIDDLLNDEFFTSGYIPSRLPTTCLTVPPRFSIAPSTIDQSLRKPLTAINKGQDSPLVEKQVAPAKEEEMQQPEFTEPADCYLSEMLQQLTCLNAVKPSERALIRQEEAEDPASIPIFWISKWVDYSDKYGLGYQLCDNSVGVLFNDSTRLIMYNDGDSLQYIERNNTESYLNVRSYPTTLTKKITLLKYFRNYMSEHLLKAGANTTPREGDELARLPFLRTWFRTRSAIILHLSNGTVQINFFQDHTKIILCPLMAAVSYIDEKREFRTYKLSLIQEFGCCKELASRLRYARTMVEKLQSSKSAVAHVKASA

Binding Confirmed (Pin1 [3]): Yes
B4: Splicing factor SC35: nuclear/splicing protein, predicted Pin1 substrate (protein, UniProt Q01130 2-221, looked up)
Serine/arginine-rich splicing …: SYGRPPPDVEGMTSLKVDNLTYRTSPDTLRRVFEKYGRVGDVYIPRDRYTKESRGFAFVRFHDKRDAEDAMDAMDGAVLDGRELRVQMARYGRPPDSHHSRRGPPPRRYGGGGYGRRSRSPRRRRRSRSRSRSRSRSRSRSRYSRSKSRSRTRSRSRSTSKSRSARRSKSKSSSVSRSRSRSRSRSRSRSPPPVSKRESKSRSRSKSPPKSPEEEGAVSS
